Laboratory results taken from paper PMC11852706, “Discovery of three novel neutralizing antibody epitopes on the human astrovirus capsid spike and mechanistic insights into virus neutralization” (Journal of Virology, 2025).

T1: HAstV1 capsid spike, histidine-tagged (Human astrovirus 1 (HAstV1), GenBank …)
T1 construct: also called HAstV1 spike; histidine-tagged HAstV1 spike
T1 chain: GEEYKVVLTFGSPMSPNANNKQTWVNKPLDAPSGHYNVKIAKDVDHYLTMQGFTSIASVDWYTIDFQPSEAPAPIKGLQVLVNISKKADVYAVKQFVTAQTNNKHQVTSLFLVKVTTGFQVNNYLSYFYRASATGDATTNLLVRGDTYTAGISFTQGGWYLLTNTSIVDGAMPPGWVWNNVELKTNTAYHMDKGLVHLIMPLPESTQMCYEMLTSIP

B1: Fab 3B4 (Fab, V domains shown)
VH: QVQLHQPGAELVKPGASVNLSCKASGYTFTSYWMHWVKQRPGQGLEWIGEINPSSGRANYNEKFKNKATLTVDKSSITAYMHLSSLTSEDSAVYYCHWDYYAMDYWGQGTSVTVSS
VL: DIVLTQSPATLSVTPGDSVSLSCRASQSISNNLHWYQQKSHESPRLLFKSASQSISGIPSRFSGSGSGTDFTLSINSVETEDFGMYFCQQTNSWPLTFGTGTKLDLK
notes: source: CHO-S, electroporated, purified from supernatant (StrepTrap HP)
B2: Fab 3H4 (Fab, V domains shown)
VH: QVQLKESGPGLVAPSQSLSISCTVSGFSLTTFGIHWIRQPPGKGLEWLGVIWAAGTTNYNSTLKSRLTITKDNSRSQVFLKMNSLQTYDTAIYYCVREDYDYFFGLDYWGQGTSVTVSS
VL: QAVVTQESALTTSPGETVTLTCRSSTGAVTTSNYASWVQEKPDHLFIGLIGGTNNRAPGVPARFSGSLIGDKAALTITGAQTDDEAIYFCALWFSNHWVFGGGTKLTVL
notes: as for B1

Key:
[1] = target: T1, HAstV1 capsid spike, histidine-tagged; assay: BLI; histidine-tagged HAstV1 spike (0.5 ug/mL) loaded on Anti-Penta-His (HIS1K) biosensors; Fab in solution (3H4: 2.5, 5, 10, 20 nM; 3B4: 20, 40, 80, 160 nM); Octet Kinetics Buffer (PBS pH 7.4 + 0.1% BSA + 0.02% Tween 20); association 180 s, dissociation 600 s; global 1:1 fit; average of three replicates; details: both partners purified
[2] = target: HAstV1 capsid spike, biotinylated (human astrovirus 1 (HAstV1)) (UniProt O12792); assay: BLI; competition: biotinylated HAstV1 spike (0.5 ug/mL) on streptavidin biosensors, saturated with 150 nM Fab 3H4 or 250 nM Fab 3B4 for 600 s, then dipped into 2 uM FcRn for 300 s; Octet Kinetics Buffer; FcRn shift normalised to FcRn on spike without Fab (100%) and to self-Fab control (0%); triplicate

Row | Binder | Kd [1] | FcRn binding (%) left on spike saturated with the Fab [2]
1 | B1 | 11.8 nM | 40%
2 | B2 | 0.49 nM | 4%
